Literature values, collected in patent US20200069786A1, “COMPOSITION AND PROCESS FOR PREPARING VACCINE” (TREOS BIO ZRT., priority 2018, published 2020).
Read-outs that look alike come from different tables or passages of the source.

B1: FSIP1 (protein, UniProt Q8NA03 1-581, looked up)
Fibrous sheath-interacting …: MDIIKGNLDGISKPASNSRIRPGSRSSNASLEVLSTEPGSFKVDTASNLNSGKEDHSESSNTENRRTSNDDKQESCSEKIKLAEEGSDEDLDLVQHQIISECSDEPKLKELDSQLQDAIQKMKKLDKILAKKQRREKEIKKQGLEMRIKLWEEIKSAKYSEAWQSKEEMENTKKFLSLTAVSEETVGPSHEEEDTFSSVFHTQIPPEEYEMQMQKLNKDFTCDVERNESLIKSGKKPFSNTEKIELRGKHNQDFIKRNIELAKESRNPVVMVDREKKRLVELLKDLDEKDSGLSSSEGDQSGWVVPVKGYELAVTQHQQLAEIDIKLQELSAASPTISSFSPRLENRNNQKPDRDGERNMEVTPGEKILRNTKEQRDLHNRLREIDEKLKMMKENVLESTSCLSEEQLKCLLDECILKQKSIIKLSSERKKEDIEDVTPVFPQLSRSIISKLLNESETKVQKTEVEDADMLESEECEASKGYYLTKALTGHNMSEALVTEAENMKCLQFSKDVIISDTKDYFMSKTLGIGRLKRPSFLDDPLYGISVSLSSEDQHLKLSSPENTIADEQETKDAAEECKEP
B2: DKKL1 (protein, UniProt Q9UK85 31-242, looked up)
Dickkopf-like protein 1: APIHDADAQESSLGLTGLQSLLQGFSRLFLKGNLLRGIDSLFSAPMDFRGLPGNYHKEENQEHQLGNNTLSSHLQIDKMTDNKTGEVLISENVVASIQPAEGSFEGDLKVPRMEEKEALVPIQKATDSFHTELHPRVAFWIIKLPRRRSHQDALEGGHWLSEKRHRLQAIRDGLRKGTHKDVLEEGTESSSHSRLSPRKTHLLYILRPSRQL
B3: HSPB9 (protein, UniProt Q9BQS6 1-159, looked up)
Heat shock protein beta-9: MQRVGNTFSNESRVASRCPSVGLAERNRVATMPVRLLRDSPAAQEDNDHARDGFQMKLDAHGFAPEELVVQVDGQWLMVTGQQQLDVRDPERVSYRMSQKVHRKMLPSNLSPTAMTCCLTPSGQLWVRGQCVALALPEAQTGPSPRLGSLGSKASNLTR
B4: ZNF645 (protein, UniProt Q8N7E2 1-425, looked up)
E3 ubiquitin-protein ligase …: MNKMPAGEQECEYNKEGKYYSKGVKLVRKKKKIPGYRWGDIKINIIGEKDDLPIHFCDKCDLPIKIYGRIIPCKHAFCYHCANLYDKVGYKVCPRCRYPVLRIEAHKRGSVFMCSIVQQCKRTYLSQKSLQAHIKRRHKRARKQVTSASLEKVRPHIAPPQTEISDIPKRLQDRDHLSYIPPEQHTMVSLPSVQHMLQEQHNQPHKDIQAPPPELSLSLPFPIQWETVSIFTRKHGNLTVDHIQNNSDSGAKKPTPPDYYPECQSQPAVSSPHHIIPQKQHYAPPPSPSSPVNHQMPYPPQDVVTPNSVRSQVPALTTTYDPSSGYIIVKVPPDMNSPPLRAPQSQNGNPSASEFASHHYNLNILPQFTENQETLSPQFTQTDAMDHRRWPAWKRLSPCPPTRSPPPSTLHGRSHHSHQRRHRRY
B5: CEP55 (protein, UniProt Q53EZ4 1-464, looked up)
Centrosomal protein of 55 kDa: MSSRSTKDLIKSKWGSKPSNSKSETTLEKLKGEIAHLKTSVDEITSGKGKLTDKERHRLLEKIRVLEAEKEKNAYQLTEKDKEIQRLRDQLKARYSTTTLLEQLEETTREGERREQVLKALSEEKDVLKQQLSAATSRIAELESKTNTLRLSQTVAPNCFNSSINNIHEMEIQLKDALEKNQQWLVYDQQREVYVKGLLAKIFELEKKTETAAHSLPQQTKKPESEGYLQEEKQKCYNDLLASAKKDLEVERQTITQLSFELSEFRRKYEETQKEVHNLNQLLYSQRRADVQHLEDDRHKTEKIQKLREENDIARGKLEEEKKRSEELLSQVQFLYTSLLKQQEEQTRVALLEQQMQACTLDFENEKLDRQHVQHQLHVILKELRKARNQITQLESLKQLHEFAITEPLVTFQGETENREKVAASPKSPTAALNESLVECPKCNIQYPATEHRDLLVHVEYCSK
B6: THEG (protein, UniProt Q9P2T0 1-379, looked up)
Sperm microtubule associated …: MGDSRRRSLGNQPSSEAAGRSEREQDGDPRGLQSSVYESRRVTDPERQDLDNAELGPEDPEEELPPEEVAGEEFPETLDPKEALSELERVLDKDLEEDIPEISRLSISQKLPSTTMTKARKRRRRRRLMELAEPKINWQVLKDRKGRCGKGYAWISPCKMSLHFCLCWPSVYWTERFLEDTTLTITVPAVSRRVEELSRPKRFYLEYYNNNRTTPVWPIPRSSLEYRASSRLKELAAPKIRDNFWSMPMSEVSQVSRAAQMAVPSSRILQLSKPKAPATLLEEWDPVPKPKPHVSDHNRLLHLARPKAQSDKCVPDRDPRWEVLDVTKKVVASPRIISLAKPKVRKGLNEGYDRRPLASMSLPPPKASPEKCDQPRPGL
B7: FBXO39 (protein, UniProt Q8N4B4 1-442, looked up)
F-box only protein 39: MDEESELIQPQDQSCWAFLPDLCLCRVFWWLGDRDRSRAALVCRKWNQMMYSAELWRYRTITFSGRPSRVHASEVESAVWYVKKFGRYLEHLEVKFMNPYNAVLTKKFQVTMRGLLSCLSKSNNRLKSLSIQYLELDRLVWRNSIRSSFISSLSFFLKKMGKRLDYLNLKGARLTVEQGCQILDSLSYMRNENVISELNIEDYFSHHLAVYNSPQFKKTMSTFHNLVSLNLNYNCISDELLENLCENASTLRTINIKCHVHDPHGQVIWGMSWAKLARQATNLKVNFFFERIMKYERLARILLQEIPIRSISLRSCYFSDPDCSMRPTLIDLLPTFRHTLQKLTCEFNNNHESLDEELHLLIISCRKLFYFKIWAFLDVSFVERILKSQKERQCALRVFKARIYTNRYETNEEDKTLQEIYRKYRKLIESELSYFVIVYSVM
B8: LEMD1 (protein, UniProt Q68G75 1-181, looked up)
LEM domain-containing protein …: MVDVKCLSDCKLQNQLEKLGFSPGPILPSTRKLYEKKLVQLLVSPPCAPPVMNGPRELDGAQDSDDSEELNIILQGNIILSTEKSKKLKKWPEASTTKRKAVDTYCLDYKPSKGRRWAARAPSTRITYGTITKERDYCAEDQTIESWREEGFPVGLKLAVLGIFIIVVFVYLTVENKSLFG
B9: CT46 (protein, UniProt Q86X24 1-394, looked up)
HORMA domain-containing …: MATAQLQRTPMSALVFPNKISTEHQSLVLVKRLLAVSVSCITYLRGIFPECAYGTRYLDDLCVKILREDKNCPGSTQLVKWMLGCYDALQKKYLRMVVLAVYTNPEDPQTISECYQFKFKYTNNGPLMDFISKNQSNESSMLSTDTKKASILLIRKIYILMQNLGPLPNDVCLTMKLFYYDEVTPPDYQPPGFKDGDCEGVIFEGEPMYLNVGEVSTPFHIFKVKVTTERERMENIDSTILSPKQIKTPFQKILRDKDVEDEQEHYTSDDLDIETKMEEQEKNPASSELEEPSLVCEEDEIMRSKESPDLSISHSQVEQLVNKTSELDMSESKTRSGKVFQNKMANGNQPVKSSKENRKRSQHESGRIVLHHFDSSSQESVPKRRKFSEPKEHI
B10: SPAG8 (protein, UniProt Q99932 1-485, looked up)
Sperm-associated antigen 8: METNESTEGSRSRSRSLDIQPSSEGLGPTSEPFPSSDDSPRSALAAATAAAAAAASAAAATAAFTTAKAAALSTKTPAPCSEFMEPSSDPSLLGEPCAGPGFTHNIAHGSLGFEPVYVSCIAQDTCTTTDHSSNPGPVPGSSSGPVLGSSSGAGHGSGSGSGPGCGSVPGSGSGPGPGSGPGSGPGHGSGSHPGPASGPGPDTGPDSELSPCIPPGFRNLVADRVPNYTSWSQHCPWEPQKQPPWEFLQVLEPGARGLWKPPDIKGKLMVCYETLPRGQCLLYNWEEERATNHLDQVPSMQDGSESFFFRHGHRGLLTMQLKSPMPSSTTQKDSYQPPGNVYWPLRGKREAMLEMLLQHQICKEVQAEQEPTRKLFEVESVTHHDYRMELAQAGTPAPTKPHDYRQEQPETFWIQRAPQLPGVSNIRTLDTPFRKNCSFSTPVPLSLGKLLPYEPENYPYQLGEISSLPCPGGRLGGGGGRMTPF
B11: NLRP4 (protein, UniProt Q96MN2 1-994, looked up)
NACHT, LRR and PYD …: MAASFFSDFGLMWYLEELKKEEFRKFKEHLKQMTLQLELKQIPWTEVKKASREELANLLIKHYEEQQAWNITLRIFQKMDRKDLCMKVMRERTGYTKTYQAHAKQKFSRLWSSKSVTEIHLYFEEEVKQEECDHLDRLFAPKEAGKQPRTVIIQGPQGIGKTTLLMKLMMAWSDNKIFRDRFLYTFYFCCRELRELPPTSLADLISREWPDPAAPITEIVSQPERLLFVIDSFEELQGGLNEPDSDLCGDLMEKRPVQVLLSSLLRKKMLPEASLLIAIKPVCPKELRDQVTISEIYQPRGFNESDRLVYFCCFFKDPKRAMEAFNLVRESEQLFSICQIPLLCWILCTSLKQEMQKGKDLALTCQSTTSVYSSFVFNLFTPEGAEGPTPQTQHQLKALCSLAAEGMWTDTFEFCEDDLRRNGVVDADIPALLGTKILLKYGERESSYVFLHVCIQEFCAALFYLLKSHLDHPHPAVRCVQELLVANFEKARRAHWIFLGCFLTGLLNKKEQEKLDAFFGFQLSQEIKQQIHQCLKSLGERGNPQGQVDSLAIFYCLFEMQDPAFVKQAVNLLQEANFHIIDNVDLVVSAYCLKYCSSLRKLCFSVQNVFKKEDEHSSTSDYSLICWHHICSVLTTSGHLRELQVQDSTLSESTFVTWCNQLRHPSCRLQKLGINNVSFSGQSVLLFEVLFYQPDLKYLSFTLTKLSRDDIRSLCDALNYPAGNVKELALVNCHLSPIDCEVLAGLLTNNKKLTYLNVSCNQLDTGVPLLCEALCSPDTVLVYLMLAFCHLSEQCCEYISEMLLRNKSVRYLDLSANVLKDEGLKTLCEALKHPDCCLDSLCLVKCFITAAGCEDLASALISNQNLKILQIGCNEIGDVGVQLLCRALTHTDCRLEILGLEECGLTSTCCKDLASVLTCSKTLQQLNLTLNTLDHTGVVVLCEALRHPECALQVLGLRKTDFDEETQALLTAEEERNPNLTITDDCDTITRVEI

System: TSA
[1] = TSA expression rate in LUNG cancer
[2] = TSA expression rate in PROSTATE cancer
[3] = TSA expression rate in Esophageal

| Molecule | TSA Expression Rate (ER) (BREAST) | Expression Rate (ER) % (TSA expression rate in CRC) | TSA Expression Rate (ER) (LUNG) | further results |
| --- | --- | --- | --- | --- |
| B1 | 42% | – | – | – |
| B2 | 20% | 0% | – | TSA Expression Rate (ER) (OVARIAN): 57%; TSA Expression Rate (ER) (THYROID): 0%; Expression Rate (ER) % (TSA expression rate in Cervical cancer): 33%; Expression Rate (ER) % (TSA expression rate in Kidney): 0%; Expression Rate (ER) % [1]: 12%; Expression Rate (ER) % (TSA expression rate in MELANOMA): 25%; Expression Rate (ER) % [2]: 13% |
| B3 | – | 40% | 40% | Expression Rate (ER) % [3]: 20% |
| B4 | – | – | 68% | – |
| B5 | – | – | 94% | – |
| B6 | – | – | 31% | – |
| B7 | 38% | 39% | – | Expression Rate (ER) % (TSA expression rate in GASTRIC cancer): 4%; Expression Rate (ER) % [1]: 0% |
| B8 | 35% | 94% | – | Expression Rate (ER) % [2]: 23% |
| B9 | 29% | 7% | 47% | Expression Rate (ER) % (TSA expression rate in BLADDER cancer): 20%; Expression Rate (ER) % [3]: 35% |
| B10 | 29% | – | 43% | – |
| B11 | – | – | 38% | – |
